The source of these data is patent US6040149A, “Assay for identifying agents which act on the ceramide-activated protein kinase, kinase suppressor of ras, and methods of using said agents” (priority 1997, dated 2000).

The subject of experiment [1] is Raf-1. In words: Raf-1 activity after co-expression with KSR in COS-7 cells. Format: cell-based, human (Raf-1 expressed in COS-7 cells). As to the method: Some studies used untagged KSR (n=4) and yielded identical results. At 60 hours post-transfection, cells were lysed with RIPA buffer (NP-40 buffer containing 0.1% SDS and 0.1% deoxy cholate). […] […]. The samples were boiled for 5 min, resolved with SDS-PAGE (7.5%) and autoradiographed.
[…]. After 30 min, the reaction was stopped by addition of Laemmli sample buffer and phosphorylated MBP were resolved by 15% SDS-PAGE, prior to autoradiography.
; a kind gift of Dr. Natalie Ahn) or 1.25 μg recombinant human MEK1 (Santa Cruz), 0.625 μg recombinant human ERK1 (UBI) and myelin basic protein (MBP). After 20-30 min, the reaction was stopped by addition of SDS sample buffer. […]

Experiment [2] relates to Raf-1. In words: Activation of Raf-1 by KSR in vitro (MEK1 phosphorylation).
Experiment [3] addresses T1, KSR (Mus musculus, UniProt Q61097).
T1 sequence (Q61097 1-873): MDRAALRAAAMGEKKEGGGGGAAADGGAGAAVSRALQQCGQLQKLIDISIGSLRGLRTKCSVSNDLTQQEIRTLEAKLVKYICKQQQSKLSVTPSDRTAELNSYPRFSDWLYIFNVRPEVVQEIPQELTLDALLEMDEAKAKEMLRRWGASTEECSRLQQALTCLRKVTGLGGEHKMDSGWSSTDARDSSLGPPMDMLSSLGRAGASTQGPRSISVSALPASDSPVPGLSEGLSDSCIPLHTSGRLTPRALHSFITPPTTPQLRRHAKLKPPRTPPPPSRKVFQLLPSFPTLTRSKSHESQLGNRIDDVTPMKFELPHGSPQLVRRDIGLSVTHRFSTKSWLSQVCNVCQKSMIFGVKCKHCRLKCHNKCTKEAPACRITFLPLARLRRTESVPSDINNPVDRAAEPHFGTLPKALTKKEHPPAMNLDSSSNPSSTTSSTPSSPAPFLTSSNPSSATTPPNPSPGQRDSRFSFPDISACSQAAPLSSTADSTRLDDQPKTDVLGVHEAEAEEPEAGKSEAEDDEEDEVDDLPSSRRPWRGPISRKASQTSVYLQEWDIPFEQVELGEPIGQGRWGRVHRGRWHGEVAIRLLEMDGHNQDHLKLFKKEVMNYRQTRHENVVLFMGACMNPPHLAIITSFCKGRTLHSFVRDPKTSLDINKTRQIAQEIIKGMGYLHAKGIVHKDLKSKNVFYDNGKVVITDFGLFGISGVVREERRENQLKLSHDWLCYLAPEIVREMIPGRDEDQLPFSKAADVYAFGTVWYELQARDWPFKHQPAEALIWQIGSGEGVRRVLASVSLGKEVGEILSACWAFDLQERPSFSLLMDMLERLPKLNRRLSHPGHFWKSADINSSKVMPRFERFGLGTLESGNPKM
In words: KSR autophosphorylation after treatment of COS-7 cells expressing KSR. Format: cell-based, mouse (KSR expressed in COS-7 cells). Conditions: COS-7 cells, preliminary. As to the method:
FIG. 23A--COS-7 cells were transfected as in FIG. 22A and placed in serum-free medium. After 4 hours, cells were stimulated for 10 min with the ceramide analog, C2-ceramide (Biomol), at the concentrations indicated. Cells were lysed with NP-40 lysis buffer, and Flag-tagged KSR (0.8 mg protein for each point) was immunoprecipitated and assayed for autophosphorylation activity as described in Experimental Procedures. The autoradiogram was exposed for 1 hour. KSR is expressed at similar levels in each sample as monitored by Western blot (data not shown). Data represent one of three similar experiments.
COS-7 cells expressing Flag-tagged KSR were stimulated with 10 nM TNFα for the times indicated and lysed with NP-40 buffer as in FIG. 2A. […] The autoradiogram was exposed for 1 hour. Data represent one of three similar experiments.
KSR was immunoprecipitated as above from 0.8 mg NP-40 lysate protein with 40 μl agarose-conjugated anti-Flag antibody at 4° C. for 4 hrs or overnight. […] The reaction was stopped by addition of Laemmli sample buffer. Samples were resolved by 7.5% sodium dodecyl sulfate-polyacrylamide gel electrophoresis (SDS-PAGE) and autoradiographed.

B1: KSR: mouse kinase suppressor of ras, Flag-tagged (protein, UniProt Q61097 1-873, looked up)
Kinase suppressor of Ras 1: T1 sequence (Q61097 1-873)
modifications: Flag tag
notes: mouse kinase suppressor of ras, Flag-tagged
B1: the “Raf-1 activation in COS-7 cells co-expressing KSR” value in experiment [1] is given as “marked increase in Raf-dependent MEK1 phosphorylation”. The “direct effect on MEK or ERK” value in experiment [2] was “no direct effect”.

B2: EGF: EGF (protein, UniProt P01133 23-1207, looked up)
Pro-epidermal growth factor: PQHWSCPEGTLAGNGNSTCVGPAPFLIFSHGNSIFRIDTEGTNYEQLVVDAGVSVIMDFHYNEKRIYWVDLERQLLQRVFLNGSRQERVCNIEKNVSGMAINWINEEVIWSNQQEGIITVTDMKGNNSHILLSALKYPANVAVDPVERFIFWSSEVAGSLYRADLDGVGVKALLETSEKITAVSLDVLDKRLFWIQYNREGSNSLICSCDYDGGSVHISKHPTQHNLFAMSLFGDRIFYSTWKMKTIWIANKHTGKDMVRINLHSSFVPLGELKVVHPLAQPKAEDDTWEPEQKLCKLRKGNCSSTVCGQDLQSHLCMCAEGYALSRDRKYCEDVNECAFWNHGCTLGCKNTPGSYYCTCPVGFVLLPDGKRCHQLVSCPRNVSECSHDCVLTSEGPLCFCPEGSVLERDGKTCSGCSSPDNGGCSQLCVPLSPVSWECDCFPGYDLQLDEKSCAASGPQPFLLFANSQDIRHMHFDGTDYGTLLSQQMGMVYALDHDPVENKIYFAHTALKWIERANMDGSQRERLIEEGVDVPEGLAVDWIGRRFYWTDRGKSLIGRSDLNGKRSKIITKENISQPRGIAVHPMAKRLFWTDTGINPRIESSSLQGLGRLVIASSDLIWPSGITIDFLTDKLYWCDAKQSVIEMANLDGSKRRRLTQNDVGHPFAVAVFEDYVWFSDWAMPSVMRVNKRTGKDRVRLQGSMLKPSSLVVVHPLAKPGADPCLYQNGGCEHICKKRLGTAWCSCREGFMKASDGKTCLALDGHQLLAGGEVDLKNQVTPLDILSKTRVSEDNITESQHMLVAEIMVSDQDDCAPVGCSMYARCISEGEDATCQCLKGFAGDGKLCSDIDECEMGVPVCPPASSKCINTEGGYVCRCSEGYQGDGIHCLDIDECQLGEHSCGENASCTNTEGGYTCMCAGRLSEPGLICPDSTPPPHLREDDHHYSVRNSDSECPLSHDGYCLHDGVCMYIEALDKYACNCVVGYIGERCQYRDLKWWELRHAGHGQQQKVIVVAVCVVVLVMLLLLSLWGAHYYRTQKLLSKNPKNPYEESSRDVRSRRPADTEDGMSSCPQPWFVVIKEHQDLKNGGQPVAGEDGQAADGSMQPTSWRQEPQLCGMGTEQGCWIPVSSDKGSCPQVMERSFHMPSYGTQTLEGGVEKPHSLLSANPLWQQRALDPPHQMELTQ
modifications: Pro-epidermal growth factor
Take B2: the “activation of KSR/CAP kinase” value in experiment [3] is “does not activate KSR/CAP kinase”.
